Among the data in patent publication EP4722228A1 (The University of Tokyo, dated 2024) are Kd values, retold here.

In test [1] the target is T1, Recombinant Rat MuSK Fc Chimera Protein (catalog number: 9847-MK-050, R&D Systems) (rat, UniProt Q62838 22-494).
T1 construct: Bought reagent; also called Fc-tagged rat MuSK; not shown: Fc protein of the bought chimera
T1 sequence (looked up): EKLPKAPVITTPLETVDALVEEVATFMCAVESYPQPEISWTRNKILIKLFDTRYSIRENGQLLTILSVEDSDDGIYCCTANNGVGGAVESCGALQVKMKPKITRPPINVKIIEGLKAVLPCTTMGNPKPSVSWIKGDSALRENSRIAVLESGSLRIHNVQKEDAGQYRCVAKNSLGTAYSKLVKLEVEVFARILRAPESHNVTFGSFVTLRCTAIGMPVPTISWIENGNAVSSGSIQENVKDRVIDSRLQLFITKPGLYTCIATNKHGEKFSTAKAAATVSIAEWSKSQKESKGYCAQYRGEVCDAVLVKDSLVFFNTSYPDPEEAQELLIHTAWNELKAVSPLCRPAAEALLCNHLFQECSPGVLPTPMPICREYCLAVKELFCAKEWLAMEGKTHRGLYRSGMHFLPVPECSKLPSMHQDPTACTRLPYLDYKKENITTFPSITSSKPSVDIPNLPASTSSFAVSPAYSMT
As to the kind of experiment: SPR (Biacore T200), Fc-tagged rat MuSK on Protein G/A chip, 1:1 fit. For orientation: In SPR one partner is held on a chip, and binding of the other changes the refractive index at the surface.

Test [2] addresses Fc-tagged mouse MuSK extracellular domain (mouse). In words: SPR (Biacore T200), Fc-tagged mouse MuSK on Protein G/A chip, 1:1 fit.

Bridge positions count the residues as written; N and C are the ends. Square brackets hold non-standard residues; d marks the D form. Ends that are not written are not given here.

Fc-tagged mouse MuSK extracellular domain (mouse), sequence (chain, as listed by the source limits assumed): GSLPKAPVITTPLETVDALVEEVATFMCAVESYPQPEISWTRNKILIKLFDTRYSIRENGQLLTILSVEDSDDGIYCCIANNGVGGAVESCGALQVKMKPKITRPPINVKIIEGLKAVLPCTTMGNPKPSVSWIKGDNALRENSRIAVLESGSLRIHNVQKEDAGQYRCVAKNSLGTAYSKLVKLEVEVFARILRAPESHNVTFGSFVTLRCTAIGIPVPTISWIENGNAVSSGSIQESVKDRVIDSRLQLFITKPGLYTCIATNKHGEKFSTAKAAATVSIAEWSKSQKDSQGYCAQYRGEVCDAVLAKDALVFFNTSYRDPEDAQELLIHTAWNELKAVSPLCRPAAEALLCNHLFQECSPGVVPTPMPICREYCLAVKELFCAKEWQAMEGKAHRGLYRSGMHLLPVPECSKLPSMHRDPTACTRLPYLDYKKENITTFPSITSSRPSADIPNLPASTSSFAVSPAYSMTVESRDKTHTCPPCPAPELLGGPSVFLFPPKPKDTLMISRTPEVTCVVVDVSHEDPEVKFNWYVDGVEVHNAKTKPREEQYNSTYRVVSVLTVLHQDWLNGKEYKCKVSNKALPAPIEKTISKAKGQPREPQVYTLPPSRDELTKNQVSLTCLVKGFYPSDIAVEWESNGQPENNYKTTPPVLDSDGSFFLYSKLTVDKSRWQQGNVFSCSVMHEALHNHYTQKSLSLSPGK

B1: Homodimer of MuSK7 with an introduced palmitoyl group (MuSK7-pal) (peptide)
peptide: {CH2CO}-[dY]PSYHTNVVASLKRC
modifications: thioether N-15; also: homodimer: two peptides condensed via C-terminal Cys carboxyl with linking unit bearing palmitic acid
notes: also called Dimeric peptide
As for B1, the Kd was 2 nM in test [1] and 8.8 nM in test [2].

A word on the Kd: it is the free concentration of one partner at which half of the binding sites on the other are occupied at equilibrium, for simple one-to-one binding.
